We go through 41 molecules from PMC11417369, “DNA sequence and chromatin differentiate sequence-specific transcription factor binding in the human malaria parasite Plasmodium falciparum”.

Sequences and labels used below:
B1: XGTACX_negctrl_site374 (dsDNA)
DNA 1: AATAAACATTATTTTCGTATTCCAATTCTTTTTTTT
DNA 2: AAAAAAAAGAATTGGAATACGAAAATAATGTTTATT
B2: XGTACX_negctrl_site528 (dsDNA)
DNA 1: TTTTATCAAATATTTATTTTATACATAAATATTTAT
DNA 2: ATAAATATTTATGTATAAAATAAATATTTGATAAAA
B3: XGTACX_negctrl_site307 (dsDNA)
DNA 1: CTTTATCTTCTCACGAAGATTGAATAAGGTATTCTT
DNA 2: AAGAATACCTTATTCAATCTTCGTGAGAAGATAAAG
B4: XGTACX_negctrl_site542 (dsDNA)
DNA 1: TACATTTCATTGTAATCATAAAAAATAAAGAAAAAA
DNA 2: TTTTTTCTTTATTTTTTATGATTACAATGAAATGTA
B5: XGTACX_negctrl_site80 (dsDNA)
DNA 1: AAACATTTATCAATGAATCTTTTAATAAGTGTAAAG
DNA 2: CTTTACACTTATTAAAAGATTCATTGATAAATGTTT
B6: XGTACX_negctrl_site599 (dsDNA)
DNA 1: TTTTTGTAAACCTACTTCATAATTATTTATATCTAT
DNA 2: ATAGATATAAATAATTATGAAGTAGGTTTACAAAAA
B7: XGTACX_negctrl_site240 (dsDNA)
DNA 1: TTTTTTATAAAATTTTTTTTTTAAAATATTAAAACT
DNA 2: AGTTTTAATATTTTAAAAAAAAAATTTTATAAAAAA
B8: XGTACX_negctrl_site513 (dsDNA)
DNA 1: GAAAAAAAAAAAAAAAGAAAATTCATATTTTTAATA
DNA 2: TATTAAAAATATGAATTTTCTTTTTTTTTTTTTTTC
B9: XGTACX_negctrl_site76 (dsDNA)
DNA 1: TTATTATTTATTTTTTATTATTATTATTTTTTTTTA
DNA 2: TAAAAAAAAATAATAATAATAAAAAATAAATAATAA
B10: XGTACX_negctrl_site47 (dsDNA)
DNA 1: ATATATATATAATTATATAAAATATATCATATGTTA
DNA 2: TAACATATGATATATTTTATATAATTATATATATAT
B11: XGTACX_negctrl_site221 (dsDNA)
DNA 1: TATTTTATAAATACAAGTAAAATTAAATATATAATA
DNA 2: TATTATATATTTAATTTTACTTGTATTTATAAAATA
B12: XGTACX_negctrl_site400 (dsDNA)
DNA 1: AATAATGAAACAGGAAAAAAATATTGTTAAAATGTA
DNA 2: TACATTTTAACAATATTTTTTTCCTGTTTCATTATT
B13: XGTACX_negctrl_site426 (dsDNA)
DNA 1: TATTAAAATTAAAAAAAAAAAAAAAAGCAATAAAAA
DNA 2: TTTTTATTGCTTTTTTTTTTTTTTTTAATTTTAATA
B14: XGTACX_negctrl_site587 (dsDNA)
DNA 1: TATGAAAAAAAAAAAAAAAAAAAAAAAAAAAAAAAA
DNA 2: TTTTTTTTTTTTTTTTTTTTTTTTTTTTTTTTCATA
B15: XGTACX_negctrl_site159 (dsDNA)
DNA 1: TACAAAAAGAATGAAAAATATATAATAAAAATAAAA
DNA 2: TTTTATTTTTATTATATATTTTTCATTCTTTTTGTA
B16: XGTACX_negctrl_site298 (dsDNA)
DNA 1: AGTTTTTATTAAAACAAAATTTAATTATAACGTTGA
DNA 2: TCAACGTTATAATTAAATTTTGTTTTAATAAAAACT
B17: XGTACX_negctrl_site373 (dsDNA)
DNA 1: ATTTATAATGATTTTTTTAGTAATCTTGTTATTTTT
DNA 2: AAAAATAACAAGATTACTAAAAAAATCATTATAAAT
B18: XGTACX_negctrl_site427 (dsDNA)
DNA 1: TTCTATATTTTAGCTGATAATATTATGAGCTTCACT
DNA 2: AGTGAAGCTCATAATATTATCAGCTAAAATATAGAA
B19: XGTACX_negctrl_site357 (dsDNA)
DNA 1: ATAATTATATAAATATATATAATATATATATGAAAA
DNA 2: TTTTCATATATATATTATATATATTTATATAATTAT
B20: XGTACX_negctrl_site180 (dsDNA)
DNA 1: TACATATAAATATATAAATATAAATAAATAAATAAA
DNA 2: TTTATTTATTTATTTATATTTATATATTTATATGTA
B21: XGTACX_negctrl_site1 (dsDNA)
DNA 1: TACAAACAAACACATAGCAATATATGTTATCAAAAA
DNA 2: TTTTTGATAACATATATTGCTATGTGTTTGTTTGTA
B22: XGTACX_negctrl_site555 (dsDNA)
DNA 1: TTCTTTATTTATCATTATAAGAAGAGTTGATTTGTT
DNA 2: AACAAATCAACTCTTCTTATAATGATAAATAAAGAA
B23: XGTACX_negctrl_site118 (dsDNA)
DNA 1: AAGGTATACACTGCTTTATCAAGTTTAACTCTTTTT
DNA 2: AAAAAGAGTTAAACTTGATAAAGCAGTGTATACCTT
B24: XGTACX_negctrl_site278 (dsDNA)
DNA 1: TAATATTTCTTATTTTATATTTGTATATGAATGGAT
DNA 2: ATCCATTCATATACAAATATAAAATAAGAAATATTA
B25: XGTACX_negctrl_site67 (dsDNA)
DNA 1: AACAAATAAAGCTATGACATGTTAAAATTGTTTCAC
DNA 2: GTGAAACAATTTTAACATGTCATAGCTTTATTTGTT
B26: XGTACX_negctrl_site72 (dsDNA)
DNA 1: CTTTCAAAATTATTTATAGTATCTCATATTTTAGTA
DNA 2: TACTAAAATATGAGATACTATAAATAATTTTGAAAG
B27: XGTACX_negctrl_site60 (dsDNA)
DNA 1: TACAGTTTTTCTTTGAATTTATCAAGTTTTTTTCCC
DNA 2: GGGAAAAAAACTTGATAAATTCAAAGAAAAACTGTA
B28: XGTACX_negctrl_site69 (dsDNA)
DNA 1: AGAGTAGGAAATGGAAAAATAAAATAAATAAATAAA
DNA 2: TTTATTTATTTATTTTATTTTTCCATTTCCTACTCT
B29: XGTACX_negctrl_site308 (dsDNA)
DNA 1: TACATAATTTAAAATTTTATAAGTTGTAATTCGTTT
DNA 2: AAACGAATTACAACTTATAAAATTTTAAATTATGTA
B30: XGTACX_negctrl_site355 (dsDNA)
DNA 1: AAAGGGGAAAATATTATACATATAATAAATCCGTAT
DNA 2: ATACGGATTTATTATATGTATAATATTTTCCCCTTT
B31: XGTACX_negctrl_site418 (dsDNA)
DNA 1: TTTTTTTTTTTTTTTTCTTTTTTTTTTTTAAATAAG
DNA 2: CTTATTTAAAAAAAAAAAAGAAAAAAAAAAAAAAAA
B32: XGTACX_negctrl_site420 (dsDNA)
DNA 1: AAAAAATAGAATATAAAAATAAAGGAATTAAATTAA
DNA 2: TTAATTTAATTCCTTTATTTTTATATTCTATTTTTT
B33: XGTACX_negctrl_site380 (dsDNA)
DNA 1: TTTTTTAAAAGATATATAATATGTATGAATATTCAA
DNA 2: TTGAATATTCATACATATTATATATCTTTTAAAAAA
B34: XGTACX_negctrl_site364 (dsDNA)
DNA 1: ATAAAATATTAGACATTTATTAATATTACACATATC
DNA 2: GATATGTGTAATATTAATAAATGTCTAATATTTTAT
B35: XGTACX_negctrl_site347 (dsDNA)
DNA 1: AAAATGGAACTAGGAATAATATAAGAAGATAAAAGG
DNA 2: CCTTTTATCTTCTTATATTATTCCTAGTTCCATTTT
B36: XGTACX_negctrl_site314 (dsDNA)
DNA 1: TAATTTATAAGGTATAACAACAATTGCATCTATCAC
DNA 2: GTGATAGATGCAATTGTTGTTATACCTTATAAATTA
B37: XGTACX_negctrl_site480 (dsDNA)
DNA 1: TTGATAAAAAAAAAAAAATAAAAAAAAAATAAAAAA
DNA 2: TTTTTTATTTTTTTTTTATTTTTTTTTTTTTATCAA
B38: XGTACX_negctrl_site479 (dsDNA)
DNA 1: AATCAATTAATATTAGCATAAAATTTTATTATTTTG
DNA 2: CAAAATAATAAAATTTTATGCTAATATTAATTGATT
B39: XGTACX_negctrl_site87 (dsDNA)
DNA 1: GCATATTTTCCCTGTGAATAAAGTTTTTTTTTTTAT
DNA 2: ATAAAAAAAAAAACTTTATTCACAGGGAAAATATGC
B40: XGTACX_negctrl_site143 (dsDNA)
DNA 1: TATTTCGTAATTTAATAATATACAAGAAATATATAT
DNA 2: ATATATATTTCTTGTATATTATTAAATTACGAAATA
B41: XGTACX_negctrl_site102 (dsDNA)
DNA 1: TTCTTTTTATTTATATTTTCCCCTCTCTATAGCTAT
DNA 2: ATAGCTATAGAGAGGGGAAAATATAAATAAAAAGAA

The series addresses T1, AP2-G D1 (Plasmodium falciparum, UniProt Q8I5I9 2123-2245).
T1 sequence: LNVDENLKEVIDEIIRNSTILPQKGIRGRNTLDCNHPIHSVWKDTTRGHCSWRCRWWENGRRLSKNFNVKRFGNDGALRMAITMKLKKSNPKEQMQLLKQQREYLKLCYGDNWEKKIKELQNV
In words: gcPBM; about 25 ug protein; PBS, 1% milk, 0.2 mg/ml BSA, salmon testes DNA, 0.03% Triton X-100. The settings on record: tags: N-terminal GST (pGEX-4T-1), kept; label: surface-attached array probe.
As to B1, the binding signal is 9.74 ln median PBM intensity, better of two orientations.

For the molecule B2, the binding signal is 9.58 ln median PBM intensity, better of two orientations.

Regarding B3, the binding signal was 9.6 ln median PBM intensity, better of two orientations.

B4: the binding signal was 9.7 ln median PBM intensity, better of two orientations.

With B5, the binding signal was 9.73 ln median PBM intensity, better of two orientations.

In the case of B6, the binding signal is 9.69 ln median PBM intensity, better of two orientations.

Consider B7, for which the binding signal was 9.66 ln median PBM intensity, better of two orientations.

As to B8, the binding signal is 9.66 ln median PBM intensity, better of two orientations.

Regarding B9, the binding signal was 9.62 ln median PBM intensity, better of two orientations.

For B10, the binding signal was 9.64 ln median PBM intensity, better of two orientations.

Turning to B11, the binding signal is 9.64 ln median PBM intensity, better of two orientations.

B12: the binding signal was 9.6 ln median PBM intensity, better of two orientations.

Take B13: the binding signal is 9.73 ln median PBM intensity, better of two orientations.

As for B14, the binding signal is 9.69 ln median PBM intensity, better of two orientations.

On to B15, for which the binding signal was 9.63 ln median PBM intensity, better of two orientations.

Regarding B16, the binding signal was 9.58 ln median PBM intensity, better of two orientations.

In the case of B17, the binding signal was 9.69 ln median PBM intensity, better of two orientations.

For the molecule B18, the binding signal is 9.67 ln median PBM intensity, better of two orientations.

B19: the binding signal was 9.61 ln median PBM intensity, better of two orientations.

As to B20, the binding signal is 9.74 ln median PBM intensity, better of two orientations.

On to B21, for which the binding signal is 9.63 ln median PBM intensity, better of two orientations.

On to B22, for which the binding signal was 9.71 ln median PBM intensity, better of two orientations.

B23: the binding signal was 9.62 ln median PBM intensity, better of two orientations.

Consider B24, for which the binding signal was 9.65 ln median PBM intensity, better of two orientations.

As to B25, the binding signal is 9.59 ln median PBM intensity, better of two orientations.

Take B26: the binding signal was 9.65 ln median PBM intensity, better of two orientations.

For the molecule B27, the binding signal was 9.65 ln median PBM intensity, better of two orientations.

Consider B28, for which the binding signal was 9.72 ln median PBM intensity, better of two orientations.

For the molecule B29, the binding signal was 9.65 ln median PBM intensity, better of two orientations.

For B30, the binding signal is 9.67 ln median PBM intensity, better of two orientations.

B31: the binding signal was 9.64 ln median PBM intensity, better of two orientations.

For the molecule B32, the binding signal was 9.64 ln median PBM intensity, better of two orientations.

Take B33: the binding signal is 9.71 ln median PBM intensity, better of two orientations.

Turning to B34, the binding signal is 9.58 ln median PBM intensity, better of two orientations.

Turning to B35, the binding signal was 9.72 ln median PBM intensity, better of two orientations.

As for B36, the binding signal was 9.69 ln median PBM intensity, better of two orientations.

For B37, the binding signal was 9.72 ln median PBM intensity, better of two orientations.

Turning to B38, the binding signal was 9.57 ln median PBM intensity, better of two orientations.

On to B39, for which the binding signal was 9.67 ln median PBM intensity, better of two orientations.

As for B40, the binding signal was 9.58 ln median PBM intensity, better of two orientations.

As to B41, the binding signal is 9.73 ln median PBM intensity, better of two orientations.
